In article PMC9816786 (2022):

Legend:
Assay in all cases: BLI
P1.40 T109A = target: P1.40 T109A
P1.40 R111A = target: P1.40 R111A
P1.40 D62A = target: P1.40 D62A
P1.40 F110A = target: P1.40 F110A
P1.40 D89A = target: P1.40 D89A
P1.40 E44A = target: P1.40 E44A
P1.40 E46A = target: P1.40 E46A
P1.40 R43A = target: P1.40 R43A

Kd (P1.40 T109A): > 1000 nM
koff (P1.40 T109A): > 0.001 s⁻¹
Kd (P1.40 R111A): 3.49 nM
koff (P1.40 R111A): 0.00147 s⁻¹
Kd (P1.40 D62A): 1.26 nM
koff (P1.40 D62A): 0.000668 s⁻¹
Kd (P1.40 F110A): > 1000 nM
koff (P1.40 F110A): > 0.001 s⁻¹
Kd (P1.40 D89A): 2.79 nM
koff (P1.40 D89A): 0.000882 s⁻¹
Kd (P1.40 E44A): 0.477 nM
koff (P1.40 E44A): 0.000359 s⁻¹
Kd (P1.40 E46A): 1.22 nM
koff (P1.40 E46A): 0.00064 s⁻¹
Kd (P1.40 R43A): 2.86 nM
koff (P1.40 R43A): 0.00141 s⁻¹
B1: CHRD (aa 449–693) of human PCSK9, 6xHis-tagged (domain or fragment)
chain: HGAGWQLFCRTVWSAHSGPTRMATAVARCAPDEELLSCSSFSRSGKRRGERMEAQGGKLVCRAHNAFGGEGVYAIARCCLLPQANCSVHTAPPAEASMGTRVHCHQQGHVLTGCSSHWEVEDLGTHKPPVLRPRGQPNQCVGHREASIHASCCHAPGLECKVKEHGIPAPQEQVTVACEEGWTLTGCSALPGTSHVLGAYAVDNTCVVRSRDVSTTGSTSEGAVTAVAICCRSRHLAQASQELQ
modifications: biotinylated where it was immobilised for BLI (site not told)
